In article PMC11130202 one finds stoichiometry N data, which are given here for one substance.

This assay concerns the target Spa2(281-535) (S. cerevisiae (budding yeast)) (UniProt P23201). Put plainly: AUC; sedimentation velocity; 20 mM HEPES pH 7.4, 50 mM NaCl, 20 °C; Spa2(281-535) 18 μM, Spa2(1-535) 13 μM, Spa2(1-281) 17 μM.

A word on the stoichiometry N: it is the number of molecules, sites or subunits per partner or assembly. Regarding “Spa2(281-535) (from UniProt P23201 281-535) (domain or fragment)”, the stoichiometry N amounted to 2.
